From US20110152500A1

What was measured:
VCAM1-Trx (human) [1] = molecular target: VCAM1-Trx (human) (UniProt P19320); assay: SPR (Biacore), synthetic peptide
VCAM1-Trx (human) [2] = molecular target: VCAM1-Trx (human) (UniProt P19320); assay: SPR (Biacore), immobilisation of VCAM1 not stated

- Kd (VCAM1-Trx (human) [1]): 318 nM
- koff (VCAM1-Trx (human) [2]): 0.1 s⁻¹
- kon (VCAM1-Trx (human) [2]): 330000 M⁻¹ s⁻¹
Binder: QARDCTGSWTWENGKWTWKGPSICPI [Peptide 1 specific to VCAM1 (bipodal-peptide binder)]
